The text below walks through data of paper PMC10082157.

For assay [1], the target named is TCR–CD3 complex on T cells (human (endogenous in Jurkat and primary T cells)) (UniProt P07766).
Assay [2] has as its target human CD19 (human (endogenous in Raji)) (UniProt P15391).

Chain of TCR–CD3 complex on T cells (human (endogenous in Jurkat and primary T cells)) (P07766 whole entry, looked up, one chain of several): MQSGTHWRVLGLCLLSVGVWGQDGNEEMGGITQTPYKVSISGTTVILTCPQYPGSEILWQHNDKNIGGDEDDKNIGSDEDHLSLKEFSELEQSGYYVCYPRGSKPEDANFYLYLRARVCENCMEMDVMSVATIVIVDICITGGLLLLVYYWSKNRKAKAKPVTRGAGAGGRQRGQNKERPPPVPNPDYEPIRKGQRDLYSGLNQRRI
Chain of human CD19 (human (endogenous in Raji)) (P15391 20-556): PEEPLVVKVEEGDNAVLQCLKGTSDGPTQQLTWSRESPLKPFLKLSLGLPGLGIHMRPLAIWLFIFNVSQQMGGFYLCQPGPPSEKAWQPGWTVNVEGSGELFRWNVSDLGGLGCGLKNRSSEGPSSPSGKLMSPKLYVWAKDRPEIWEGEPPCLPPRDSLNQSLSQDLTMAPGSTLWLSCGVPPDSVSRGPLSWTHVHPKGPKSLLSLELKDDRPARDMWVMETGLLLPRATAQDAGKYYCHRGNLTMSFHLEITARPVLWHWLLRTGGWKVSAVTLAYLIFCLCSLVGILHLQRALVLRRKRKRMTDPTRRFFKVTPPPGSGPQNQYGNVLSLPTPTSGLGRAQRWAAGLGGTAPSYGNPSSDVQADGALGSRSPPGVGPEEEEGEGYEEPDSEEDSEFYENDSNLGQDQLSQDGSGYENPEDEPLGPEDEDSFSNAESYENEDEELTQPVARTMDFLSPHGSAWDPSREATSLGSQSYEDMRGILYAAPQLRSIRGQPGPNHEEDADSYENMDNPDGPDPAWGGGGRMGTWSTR

Consider “Blinatumomab (CD19xCD3 BiTE) (bispecific antibody)”, for which the activation of Jurkat-ZsG NFAT reporter cells (ZsGreen) in droplets with CD19+ Raji cells and 100 ng/ml Blinatumomab; percent activated in assay [1] and in assay [2] was 40% in each case.
